Consider three molecules from patent US20110282030A1 (MAYO FOUNDATION FOR MEDICAL EDUCATION AND RESEARCH, published 2011).

In one assay the target is T1, human NPR-B (human, UniProt P20594 23-1047).
T1 sequence: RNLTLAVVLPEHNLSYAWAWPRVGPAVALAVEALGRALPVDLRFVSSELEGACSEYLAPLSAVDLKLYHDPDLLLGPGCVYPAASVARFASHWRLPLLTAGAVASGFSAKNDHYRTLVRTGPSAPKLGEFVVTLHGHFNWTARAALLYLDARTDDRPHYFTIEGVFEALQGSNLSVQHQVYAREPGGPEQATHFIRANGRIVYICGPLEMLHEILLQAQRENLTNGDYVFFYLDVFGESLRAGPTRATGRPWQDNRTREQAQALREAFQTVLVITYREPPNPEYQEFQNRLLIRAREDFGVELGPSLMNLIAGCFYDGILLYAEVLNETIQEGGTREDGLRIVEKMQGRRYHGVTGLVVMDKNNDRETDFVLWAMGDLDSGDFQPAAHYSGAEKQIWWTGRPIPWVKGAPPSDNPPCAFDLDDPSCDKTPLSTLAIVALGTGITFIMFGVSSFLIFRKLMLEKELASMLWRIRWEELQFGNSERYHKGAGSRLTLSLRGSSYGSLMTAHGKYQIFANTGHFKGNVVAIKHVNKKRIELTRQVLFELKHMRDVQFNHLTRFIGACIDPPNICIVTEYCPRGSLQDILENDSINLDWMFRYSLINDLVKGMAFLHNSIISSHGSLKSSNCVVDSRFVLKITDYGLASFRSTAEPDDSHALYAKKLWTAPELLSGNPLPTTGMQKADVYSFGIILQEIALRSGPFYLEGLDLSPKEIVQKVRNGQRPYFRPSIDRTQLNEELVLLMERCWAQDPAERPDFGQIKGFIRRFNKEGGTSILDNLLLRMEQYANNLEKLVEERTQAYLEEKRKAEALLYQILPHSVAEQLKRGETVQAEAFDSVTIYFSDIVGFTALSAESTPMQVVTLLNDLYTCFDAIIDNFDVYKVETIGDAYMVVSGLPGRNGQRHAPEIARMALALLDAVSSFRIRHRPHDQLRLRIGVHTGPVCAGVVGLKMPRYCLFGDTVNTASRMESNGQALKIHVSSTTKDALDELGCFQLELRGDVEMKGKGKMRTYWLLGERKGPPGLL
Nature of the assay: cell-based or functional assay.

A further assay has as its target T2, human NPR-C (human, UniProt P17342 27-541).
T2 construct: whole, on cells; also called clearance receptor
T2 sequence: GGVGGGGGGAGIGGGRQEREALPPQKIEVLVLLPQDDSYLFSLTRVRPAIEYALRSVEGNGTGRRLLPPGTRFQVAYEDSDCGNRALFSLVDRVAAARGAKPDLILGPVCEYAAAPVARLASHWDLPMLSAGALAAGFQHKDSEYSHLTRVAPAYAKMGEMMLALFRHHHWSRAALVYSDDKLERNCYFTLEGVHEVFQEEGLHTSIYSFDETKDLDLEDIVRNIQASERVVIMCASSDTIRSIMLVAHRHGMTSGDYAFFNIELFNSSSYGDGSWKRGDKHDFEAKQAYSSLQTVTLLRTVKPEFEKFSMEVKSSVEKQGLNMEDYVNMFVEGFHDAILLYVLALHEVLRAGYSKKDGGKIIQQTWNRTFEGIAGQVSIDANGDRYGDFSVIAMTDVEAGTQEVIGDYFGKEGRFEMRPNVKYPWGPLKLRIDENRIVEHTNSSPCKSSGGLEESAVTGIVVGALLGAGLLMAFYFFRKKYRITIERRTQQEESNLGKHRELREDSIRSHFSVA
Nature of the assay: displacement of ^125I-ANP from NPR-C.

Assay [1] addresses T3, human NPR-A (human, UniProt P16066 33-1061).
T3 construct: whole, on cells; also called hNPR-A; hNPRA
T3 sequence: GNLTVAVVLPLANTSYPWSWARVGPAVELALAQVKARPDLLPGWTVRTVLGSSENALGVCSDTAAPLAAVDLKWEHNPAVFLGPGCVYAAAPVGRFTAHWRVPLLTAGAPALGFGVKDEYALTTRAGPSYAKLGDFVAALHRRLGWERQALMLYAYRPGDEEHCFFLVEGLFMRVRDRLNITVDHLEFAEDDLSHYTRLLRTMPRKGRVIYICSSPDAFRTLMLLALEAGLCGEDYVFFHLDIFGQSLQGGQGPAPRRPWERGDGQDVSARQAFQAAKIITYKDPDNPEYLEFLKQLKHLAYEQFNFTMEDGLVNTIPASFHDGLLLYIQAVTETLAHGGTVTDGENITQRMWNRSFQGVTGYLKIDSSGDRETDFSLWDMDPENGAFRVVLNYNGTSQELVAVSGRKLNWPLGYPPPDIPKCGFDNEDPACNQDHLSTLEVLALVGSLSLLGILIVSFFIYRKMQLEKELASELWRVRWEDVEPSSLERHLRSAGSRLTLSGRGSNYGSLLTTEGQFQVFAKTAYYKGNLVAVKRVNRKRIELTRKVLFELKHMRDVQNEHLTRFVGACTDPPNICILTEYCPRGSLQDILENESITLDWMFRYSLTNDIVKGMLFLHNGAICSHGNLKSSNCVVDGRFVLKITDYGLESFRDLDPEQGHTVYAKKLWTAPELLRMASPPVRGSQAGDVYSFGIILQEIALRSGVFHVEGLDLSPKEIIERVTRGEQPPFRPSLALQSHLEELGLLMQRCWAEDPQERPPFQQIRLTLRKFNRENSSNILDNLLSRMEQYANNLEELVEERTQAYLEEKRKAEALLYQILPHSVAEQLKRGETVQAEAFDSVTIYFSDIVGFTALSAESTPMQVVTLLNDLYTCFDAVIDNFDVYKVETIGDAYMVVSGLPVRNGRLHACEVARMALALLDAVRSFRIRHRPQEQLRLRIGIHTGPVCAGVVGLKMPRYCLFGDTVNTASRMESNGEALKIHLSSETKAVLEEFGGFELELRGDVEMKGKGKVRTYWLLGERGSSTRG
In words: competition ^125I-ANP binding on whole 293 cells expressing hNPR-A.

In assay [2] the target is T3, human NPR-A. In words: not told; no binding experiment of DNP on NPR-A is described.

Where no end group is shown, it is not given here.

Take GLSKGCFGLKLDRIGSMSGLGC (ligand) [Human CNP]: the “EC50, cellular cGMP elevation in 293 cells expressing hNPR-B” value with human NPR-B came to 38 nM. In addition, the binding result in the assay with human NPR-C was “binds”; with human NPR-A [1] it was “no binding (tested: 10 µM)”.

Regarding EVKYDPCFGHKIDRINHVSNLGCPSLRDPRPNAPSTSA (ligand, ends and bridges not checked; cysteine pairing not given here, also called snake DNP polypeptide) [DNP], in the assay with human NPR-A [2], the binding result is “binds”.

For SLRRSSCFGGRMDRIGAQSGLGCNSFRY (ligand) [Human ANP], in the assay with human NPR-C, the binding result is given as “binds”.
